Measurements taken from US20180339041A1 (Kyowa Kirin, published 2018).
Positions count from the first letter of the chain named. In names and notes the source's numbering stands. Blank lines part the entries; values can stand above or below the binder they belong to.

Biological target: T1, C-terminally FLAG-tagged human Gas6 recombinant protein (hGas6-F) (human, UniProt Q14393 31-678, gamma-carboxylated glutamic acid residues in the Gla domain (producer cells co-express rat VKOR and human GGCX); positions not given)
T1 construct: also called human Gas6-F; human Gas6 protein
T1 sequence: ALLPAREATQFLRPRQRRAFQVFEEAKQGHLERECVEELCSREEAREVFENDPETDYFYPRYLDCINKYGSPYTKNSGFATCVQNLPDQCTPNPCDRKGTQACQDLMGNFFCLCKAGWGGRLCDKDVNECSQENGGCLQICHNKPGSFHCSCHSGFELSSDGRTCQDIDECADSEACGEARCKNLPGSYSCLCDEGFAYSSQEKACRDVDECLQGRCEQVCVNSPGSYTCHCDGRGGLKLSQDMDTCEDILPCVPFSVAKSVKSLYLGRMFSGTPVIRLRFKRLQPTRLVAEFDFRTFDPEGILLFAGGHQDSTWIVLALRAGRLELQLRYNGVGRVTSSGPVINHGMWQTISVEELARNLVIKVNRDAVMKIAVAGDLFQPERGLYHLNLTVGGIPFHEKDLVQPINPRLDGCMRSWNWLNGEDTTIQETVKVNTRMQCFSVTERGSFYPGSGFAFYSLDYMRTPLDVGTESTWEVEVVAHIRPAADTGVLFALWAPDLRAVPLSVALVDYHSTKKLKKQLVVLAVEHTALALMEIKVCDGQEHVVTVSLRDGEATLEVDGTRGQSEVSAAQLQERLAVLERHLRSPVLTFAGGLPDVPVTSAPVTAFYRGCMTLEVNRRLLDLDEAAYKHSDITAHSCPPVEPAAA
Assay: SPR Biacore T100, captured antibody, Gas6 analyte, first test
Procedure: An anti-human IgG antibody was immobilized on a CM5 sensor chip (manufactured by GE Healthcare Japan Corp.) using Human Antibody Capture Kit (manufactured by GE Healthcare Japan Corp.) according to the attached manual. Each test antibody adjusted to 1 μg/mL was added for 10 seconds at a flow rate of 10 μL/min to flow cells. […] The measurement was performed by the […] method. The obtained sensorgram was analyzed using Bia Evaluation Software (manufactured by GE Healthcare Japan Corp.), and the kinetic constant of each antibody was calculated.

Kd: < 11 nM
koff: 0.000856 s⁻¹
kon: > 77900 M⁻¹ s⁻¹
B1: hzKM5320 LV1bHV8 antibody (antibody, V domains shown)
VH: QIQLVQSGPELKKPGASVKISCKASGYTFTNYGMNWVKQAPGQGLKWMGWINTETGEPTYSDDFKGRFVFSLDTSVTTAYLQISSLKAEDTATYFCAREDGYYGTLDYWGQGTTVTVSS
VL: DVVMTQSPDSLAVSLGERVTINCKASQSVSNDVAWYQQKPGQSPKLLIYYASNRYTGVPDRFSGSGSGTDFTLTISSVQAEDVAVYYCQQDYSSPWTFGQGTKLEIK
notes: Humanized; variant human IgG4 constant region (EU S228P, L235E, R409K), human kappa; also called A-12

Kd: < 2.11 nM
koff: 0.000155 s⁻¹
kon: > 73600 M⁻¹ s⁻¹
B2: hzKM5320 LV5HV8 antibody (antibody, V domains shown)
VH: B1 VH
VL: B1 VL with V2I, L46V, L73F, Y87F
notes: Humanized; variant human IgG4 constant region (EU S228P, L235E, R409K), human kappa; also called A-16

Kd: < 2.01 nM
koff: 0.000153 s⁻¹
kon: > 76300 M⁻¹ s⁻¹
B3: hzKM5320 LV5HV3b antibody (antibody, V domains shown)
VH: B1 VH with P9S, K38R, K46E, T77S, T93V
VL: B1 VL with V2I, L46V, L73F, Y87F
notes: Humanized; variant human IgG4 constant region (EU S228P, L235E, R409K), human kappa; also called A-22

Kd: < 3.22 nM
koff: 0.000216 s⁻¹
kon: > 67200 M⁻¹ s⁻¹
B4: hzKM5320 LV6HV0 antibody (antibody, V domains shown)
VH: B1 VH with I2V, P9S, I20V, K38R, K46E, T77S, T93V, F95Y
VL: B1 VL with V2I, L15A, L46V, L73F, Y87F
notes: Humanized; variant human IgG4 constant region (EU S228P, L235E, R409K), human kappa; also called A-09

Kd: < 2.35 nM
koff: 0.000239 s⁻¹
kon: > 102000 M⁻¹ s⁻¹
B5: hzKM5321 LV6HV1 antibody (antibody, V domains shown)
VH: QVHLVQSGSELKKPGASVKISCKASGYTFTNYGMNWVRQAPGQGLKWMGWINTNTGEPTYTEEFKGRFVFSLDTSVTTSYLQISTLKAEDTAVYFCARDEGWFVYWGQGTLVTVSS
VL: ETTLTQSPSSLSVSTGDRVTITCITSTDIDDDMNWYQQKPGKPPKLLISEGNTLRPGVPSRFSSSGSGTDFTLTISSTQPEDFADYYCLQTDSVPLTFGQGTKVEIK
notes: Humanized; variant human IgG4 constant region (EU S228P, L235E, R409K), human kappa; also called B-22; LV6HV1

Kd: < 4.05 nM
koff: 0.000511 s⁻¹
kon: > 126000 M⁻¹ s⁻¹
B6: hzKM5321 LV1cHV0 antibody (antibody, V domains shown)
VH: B5 VH with K46E
VL: B5 VL with T15V, P43A, S64G, T78L, D85T
notes: Humanized; variant human IgG4 constant region (EU S228P, L235E, R409K), human kappa; also called B-05; LV1cHV0

Kd: < 7.45 nM
koff: 0.00075 s⁻¹
kon: > 101000 M⁻¹ s⁻¹
B7: hzKM5321 LV1cHV7 antibody (antibody, V domains shown)
VH: B5 VH with V2I, S9P, R38K, S79A, V93T, V112I
VL: B5 VL with T15V, P43A, S64G, T78L, D85T
notes: Humanized; variant human IgG4 constant region (EU S228P, L235E, R409K), human kappa; also called B-15; LV1cHV7

Kd: < 6.83 nM
koff: 0.000684 s⁻¹
kon: > 100000 M⁻¹ s⁻¹
B8: hzKM5321 LV1aHV7 antibody (antibody, V domains shown)
VH: B5 VH with V2I, S9P, R38K, S79A, V93T, V112I
VL: B5 VL with V13A, T15V, S64G, T78L, D85T
notes: Humanized; variant human IgG4 constant region (EU S228P, L235E, R409K), human kappa; also called B-13; LV1aHV7

Kd: < 7.49 nM
koff: 0.000751 s⁻¹
kon: > 100000 M⁻¹ s⁻¹
B9: hzKM5321 LV1bHV7 antibody (antibody, V domains shown)
VH: B5 VH with V2I, S9P, R38K, S79A, V93T, V112I
VL: B5 VL with V13A, T15V, P43A, S64G, T78L
notes: Humanized; variant human IgG4 constant region (EU S228P, L235E, R409K), human kappa; also called B-14; LV1bHV7

Kd: < 6.74 nM
koff: 0.000672 s⁻¹
kon: > 100000 M⁻¹ s⁻¹
B10: hzKM5321 LV0HV7 antibody (antibody, V domains shown)
VH: B5 VH with V2I, S9P, R38K, S79A, V93T, V112I
VL: B5 VL with V13A, T15V, P43A, S64G, T78L, D85T
notes: Humanized; variant human IgG4 constant region (EU S228P, L235E, R409K), human kappa; also called B-12; LV0HV7

Kd: < 3.92 nM
koff: 0.000492 s⁻¹
kon: > 126000 M⁻¹ s⁻¹
B11: hzKM5321 LV1aHV0 antibody (antibody, V domains shown)
VH: B5 VH with K46E
VL: B5 VL with V13A, T15V, S64G, T78L, D85T
notes: Humanized; variant human IgG4 constant region (EU S228P, L235E, R409K), human kappa; also called B-03; LV1aHV0

Kd: < 7.03 nM
koff: 0.000712 s⁻¹
kon: > 101000 M⁻¹ s⁻¹
B12: hzKM5321 LV3HV7 antibody (antibody, V domains shown)
VH: B5 VH with V2I, S9P, R38K, S79A, V93T, V112I
VL: B5 VL with V13A, P43A, S64G
notes: Humanized; variant human IgG4 constant region (EU S228P, L235E, R409K), human kappa; also called B-16; LV3HV7

Kd: < 1.86 nM
koff: 0.000285 s⁻¹
kon: > 153000 M⁻¹ s⁻¹
B13: hzKM5321 LV3HV0 antibody (antibody, V domains shown)
VH: B5 VH with K46E
VL: B5 VL with V13A, P43A, S64G
notes: Humanized; variant human IgG4 constant region (EU S228P, L235E, R409K), human kappa; also called B-06; LV3HV0

Kd: < 4.38 nM
koff: 0.000551 s⁻¹
kon: > 126000 M⁻¹ s⁻¹
B14: hzKM5321 LV4HV0 antibody (antibody, V domains shown)
VH: B5 VH with K46E
VL: B5 VL with P43A, S64G, L73F, D85T
notes: Humanized; variant human IgG4 constant region (EU S228P, L235E, R409K), human kappa; also called B-07; LV4HV0

Kd: < 8.59 nM
koff: 0.000859 s⁻¹
kon: > 100000 M⁻¹ s⁻¹
B15: hzKM5321 LV4HV7 antibody (antibody, V domains shown)
VH: B5 VH with V2I, S9P, R38K, S79A, V93T, V112I
VL: B5 VL with P43A, S64G, L73F, D85T
notes: Humanized; variant human IgG4 constant region (EU S228P, L235E, R409K), human kappa; also called B-17; LV4HV7

Kd: < 4.26 nM
koff: 0.000543 s⁻¹
kon: > 127000 M⁻¹ s⁻¹
B16: hzKM5321 LV1bHV0 antibody (antibody, V domains shown)
VH: B5 VH with K46E
VL: B5 VL with V13A, T15V, P43A, S64G, T78L
notes: Humanized; variant human IgG4 constant region (EU S228P, L235E, R409K), human kappa; also called B-04; LV1bHV0
